# According to doi:10.1101/2025.10.04.680452 (bioRxiv, 2025):
# Values joined by “and” are separate entries in the source; they are usually repeats but may differ in a detail not shown here. Equal entries are not always repeated.
# Molecular target: the molecule itself
# Assay: cryo-EM structure
protein,measurement,value
"human mitochondrial group I chaperonin mHsp60, wild type (natural protein) GSAKDVKFGADARALMLQGVDLLADAVAVTMGPKGRTVIIEQSWGSPKVTKDGVTVAKSIDLKDKYKNIGAKLVQDVANNTNEEAGDGTTTATVLARSIAKEGFEKISKGANPVEIRRGVMLAVDAVIAELKKQSKPVTTPEEIAQVATISANGDKEIGNIISDAMKKVGRKGVITVKDGKTLNDELEIIEGMKFDRGYISPYFINTSKGQKCEFQDAYVLLSEKKISSIQSIVPALEIANAHRKPLVIIAEDVDGEALSTLVLNRLKVGLQVVAVKAPGFGDNRKNQLKDMAIATGGAVFGEEGLTLNLEDVQPHDLGKVGEVIVTKDDAMLLKGKGDKAQIEKRIQEIIEQLDVTTSEYEKEKLNERLAKLSDGVAVLKVGGTSDVEVNEKKDRVTDALNATRAAVEEGIVLGGGCALLRCIPALDSLTPANEDQKIGIEIIKRTLKIPAMTIAKNAGVEGSLIVEKIMQSSSEVGYDAMAGDFVNMVEKGIIDPTKVVRTALLDAAGVASLLTTAEVVVTEIPKEEKDPGMGAMGGMGGGMGGGMF",stoichiometry N,7 and 14
